The target of assay [1] is Human FcγRI (Example 8) (human) (UniProt P12314). The assay can be described thus: BLI, receptor on SAX sensor.
The target in assay [2] is CD16a (FcγRIIIa) on Jurkat NFAT reporter cells (UniProt P08637). As to the kind of experiment: cell-based or functional assay.
Assay [3] deals with Human V158 FcγRIIIa (Example 8) (human) (UniProt P08637). As to the kind of experiment: BLI, receptor on SAX sensor.
The target of assay [4] is Human F158 FcγRIIIa (Example 8) (human) (UniProt P08637). The assay can be described thus: BLI, receptor on SAX sensor. A general note: BLI is a label-free optical method that tracks binding on a fibre tip over time.
Assay [5] addresses Human V158 FcγRIIIa (Example 8) (human) (UniProt P08637). The assay can be described thus: BLI; ratio to KD of the unconjugated antibody.
Assay [6] has as its target Human FcγRI (Example 8) (human) (UniProt P12314). The assay can be described thus: BLI; ratio to KD of the unconjugated antibody.
The target in assay [7] is Human F158 FcγRIIIa (Example 8) (human) (UniProt P08637). As to the kind of experiment: BLI; ratio to KD of the unconjugated antibody.
Assay [8] has as its target CD16a (FcγRIIIa) on Jurkat NFAT reporter cells (UniProt P08637).
Assay [9] shares this target. This is another data set of the same source.
In assay [10] the target is Human H131 FcγRIIa (Example 8) (human) (UniProt P12318). The assay can be described thus: BLI, receptor on SAX sensor.

Where two headings read alike, the source gives them in different places.

Sequence of CD16a (FcγRIIIa) on Jurkat NFAT reporter cells (P08637 17-254 limits assumed): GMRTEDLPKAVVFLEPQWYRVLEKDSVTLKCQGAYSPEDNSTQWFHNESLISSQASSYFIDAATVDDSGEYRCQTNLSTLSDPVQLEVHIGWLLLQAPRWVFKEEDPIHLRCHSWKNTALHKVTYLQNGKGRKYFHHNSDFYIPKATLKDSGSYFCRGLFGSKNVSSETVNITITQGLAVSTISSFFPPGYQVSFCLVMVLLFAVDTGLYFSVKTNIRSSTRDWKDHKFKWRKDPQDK

As for “Anti-HER2 S239D I332E-mcPEG12(8) (antibody)”, the Kd (in general, the constant that tells how readily two partners part at equilibrium) in assay [1] was found to be 1 nM.

As to “Anti-HER2 S239D A330L I332E-mcPEG12(10) (antibody)”, the CD16a NFAT EC50 in assay [2] was determined as 83.5 ng/mL. Besides, the dissociation constant Kd in assay [3] is 2900 nM; in assay [1], 1.2 nM; in [4], 3800 nM. Besides, the results for the koff in [3], in [1] and in [4] were 0.085 s⁻¹, 0.00011 s⁻¹ and 0.077 s⁻¹, respectively. Moreover, the kon (in general, a measure of how fast the partners come together) stood at 29000 M⁻¹ s⁻¹ in [3], 95000 M⁻¹ s⁻¹ in assay [1] and 20000 M⁻¹ s⁻¹ in [4]. The KD Fold change in assay [5] is 78.4 fold; in [6], 10 fold; in [7], 40 fold.

Take obinituzumab-WT (antibody): the EC50 (read off the curve), FcγRIIIa NFAT reporter assay in assay [8] was found to be 7 ng/mL.

Anti-HER2 S239D I332E (antibody) came in with a CD16a NFAT EC50 in assay [2] of 1.5 ng/mL. Moreover, in assay [1], the Kd is 0.1 nM.

In the case of Anti-HER2-mcPEG12(8) (antibody), in assay [2], the CD16a NFAT EC50 is greater than 2000 ng/mL. In assay [1], this substance came in with a Kd of 9 nM.

With obinituzumab-AF (antibody), in assay [8], the EC50 (read off the curve), FcγRIIIa NFAT reporter assay is 0.7 ng/mL.

In the case of “Anti-HER2 S239D I332E-mcPEG12(10) (antibody)”, the CD16a NFAT EC50 in assay [2] was found to be 71.2 ng/mL.

rituximab-AF (antibody) came in with an EC50 (read off the curve), FcγRIIIa NFAT reporter assay in assay [9] of 1 ng/mL.

As for Anti-HER2 S239D A330L I332E (antibody), the CD16a NFAT EC50 in assay [2] amounted to 0.7 ng/mL. The Kd in assay [3] was 37 nM; in assay [10], 2100 nM; in assay [1], 0.12 nM; in assay [4], 95 nM. Moreover, the koff – broadly, a measure of how fast the partners let go of each other – worked out at 0.028 s⁻¹ in [3], 0.38 s⁻¹ in [10], 6.8e-05 s⁻¹ in assay [1] and 0.049 s⁻¹ in assay [4]. In addition, the kon in [3] amounted to 750000 M⁻¹ s⁻¹; in assay [10] it was 190000 M⁻¹ s⁻¹; in assay [1], 590000 M⁻¹ s⁻¹; in assay [4] it was 520000 M⁻¹ s⁻¹.

As to rituximab-WT (antibody), the EC50 (read off the curve), FcγRIIIa NFAT reporter assay in assay [9] stood at 8 ng/mL.

For the origin of these results see patent US20240173421A1.
